The results in this text go back to publication doi:10.1101/2023.07.24.550339 (bioRxiv, 2023).

One data set addresses Rac1Q61L, recombinant (human, UniProt P63000 1-192, Q61L). The data set can be described thus: ITC. In general terms: ITC needs no label: the signal is the heat of the interaction.
The data set “SAXS” deals with the molecule itself. The data set can be described thus: SAXS.
For data set [1], the target named is Rab35BD (MiniBAR225-553), recombinant (human, UniProt O15063 225-553). In words: ITC.
The data set “SEC-MALS” deals with the molecule itself. In words: SEC-MALS.

B1: Rac1BD-Rab35BD (MiniBAR70-553), recombinant (domain or fragment)
chain: not shown
On to B1, for which the Kd (in general, the concentration at which binding is half-saturated) with Rac1Q61L, recombinant was approximately 200 nM. The stoichiometry N (usually the number of molecules, sites or subunits per partner or assembly) in the data set “SAXS” worked out at 2.

B2: Rab35-GPPNHP, recombinant (natural protein)
chain: not shown
As to B2, the Kd in data set [1] is approximately 2000 nM.

B3: Rac1BD (MiniBAR70-208), recombinant (domain or fragment)
chain: not shown
Take B3: the “stoichiometry N” value in the data set “SEC-MALS” is 2.
